Series [1] addresses T1, human EPDR1 (Homo sapiens, UniProt Q9UM22).
T1 construct: residues 38-224 without native signal peptide; N-terminal His8 tag, cleavage not mentioned; codon-optimised synthetic gene, pAcGP67A; secreted from Sf9 insect cells; homodimer in crystal; three intramolecular disulfides
T1 sequence (Q9UM22 38-224): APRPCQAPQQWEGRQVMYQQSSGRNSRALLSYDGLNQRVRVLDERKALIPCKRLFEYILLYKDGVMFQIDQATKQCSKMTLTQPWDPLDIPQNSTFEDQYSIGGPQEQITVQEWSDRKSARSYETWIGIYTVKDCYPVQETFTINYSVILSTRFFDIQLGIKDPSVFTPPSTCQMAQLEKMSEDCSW
Briefly: fluorescence increase titration (ex […] nm, em […] nm). Type of series: binding.

Series [2] concerns the molecule itself. Briefly: crystal structure; mouse EPDR1 crystals, hanging drop 22 C, 0.5-1.0 M lithium sulfate, 0.5-1.0 M ammonium sulfate, 0.1 M sodium citrate pH 5.6; space group P2(1), four molecules in the asymmetric unit.
Series [3] concerns the molecule itself. Briefly: crystal structure; frog EPDR1 crystals, hanging drop 22 C, 15-20% PEG 8000, 0.2 M calcium acetate, 0.1 M sodium cacodylate pH 6.5; space group P6(5)22, one molecule in the asymmetric unit, dimer with a crystallographic symmetry mate.
Series [4] concerns the molecule itself. Briefly: crystal structure; human EPDR1 crystals, hanging drop 22 C, 15-20% PEG 3350 with 0.1 M citric acid pH 4.5 or 0.2 M NaCl, 0.1 M bis-Tris pH 5.5; space group P4(3), four molecules in the asymmetric unit; interfaces judged by PISA.

These results are taken from PMC6608618, “Structures of three ependymin-related proteins suggest their function as a hydrophobic molecule binder” (IUCrJ, 2019).

Consider `O=S(=O)(O)c1cccc2cccc(Nc3ccccc3)c12` [1,8-ANS, 1-anilinonaphthalene-8-sulfonic acid], for which the Kd in series [1] is roughly 14 µM.

B1: mouse EPDR1 (residues 38-224, N-terminal His8 tag) (natural protein, UniProt Q99M71 38-224, looked up)
chain: TPQPCQAPQQWEGRQVLYQQSSGHNNRALVSYDGLNQRVRVLDERKALIPCKRLFEYILLYKEGVMFQIEQATKQCAKIPLVESWDPLDIPQNSTFEDQYSIGGPQEQILVQEWSDRRTARSYETWIGVYTAKDCYPVQETFIRNYTVVMSTRFFDVQLGIKDPSVFTPPSTCQAAQPEKMSDGCSL
modifications: N-glycosylation at Asn130 (one NAG) and at Asn182 (two NAGs and one fucose)
notes: mouse (Mus musculus) EPDR1, UniProt Q99M71, residues 38-224, without the native N-terminal signal peptide; Three intramolecular disulfide bonds; also called MERP1; source: Sf9 insect cells (baculovirus, pAcGP67A, secreted), purified (Ni-NTA, size-exclusion chromatography)
For the molecule B1, in series [2], the “stoichiometry N” value is 2.

B2: frog EPDR1 (Xenopus tropicalis, residues 38-220, N-terminal His8 tag) (natural protein, UniProt F6VRB7 38-220, looked up)
chain: TPCEAPLQWEGRIVLYDHNTGKNTRATVTYDAILQRIRILEEKKSFVPCKRFFEYIFLYQEAVMFQIEQVTKICSKNTLTEPWDPYDIPENSTYEDQYYIGGPGDQIPVQEWSDRKPARKYETWVGVYTVKDCYPVQETYTKNDSMTTSTRFFDIKLGISDPSVFNPPSTCEAAQPLLMSGDC
modifications: glycosylation at the two predicted Asn sites only slightly perceivable, too disordered to be modeled
notes: frog (Xenopus tropicalis) EPDR1, NCBI XP_002939463, residues 38-220, without the native N-terminal signal peptide; Three intramolecular disulfide bonds; source: Sf9 insect cells (baculovirus, pAcGP67A, secreted), purified (Ni-NTA, size-exclusion chromatography)
Take B2: the “stoichiometry N” value in series [3] amounted to 2.

B3: human EPDR1 (residues 38-224, N-terminal His8 tag) (natural protein, UniProt Q9UM22 38-224, looked up)
chain: APRPCQAPQQWEGRQVMYQQSSGRNSRALLSYDGLNQRVRVLDERKALIPCKRLFEYILLYKDGVMFQIDQATKQCSKMTLTQPWDPLDIPQNSTFEDQYSIGGPQEQITVQEWSDRKSARSYETWIGIYTVKDCYPVQETFTINYSVILSTRFFDIQLGIKDPSVFTPPSTCQMAQLEKMSEDCSW
modifications: glycosylation at the two predicted Asn sites only slightly perceivable, too disordered to be modeled
notes: human EPDR1, UniProt Q9UM22, residues 38-224, without the native N-terminal signal peptide; Three intramolecular disulfide bonds (Cys42-Cys172, Cys88-Cys222, Cys113-Cys210); also called mammalian ependymin-related protein 1; MERP1; source: Sf9 insect cells (baculovirus, pAcGP67A, secreted), purified (Ni-NTA, size-exclusion chromatography)
For the molecule B3, in series [4], the “stoichiometry N” value turned out to be 2.

One may read the Kd as the constant that tells how readily two partners part at equilibrium. The term stoichiometry N denotes the number of molecules, sites or subunits per partner or assembly.
